Several values for one entry are separate records, joined by “and”; a condition that tells them apart may be missing. Identical values can stand only once.
T1: human IL-4 (human, UniProt P05112 25-153, biotinylated in the receptor binding assay and on the Biacore chip)
T1 construct: also called interleukin-4; biotinylated IL-4
T1 sequence (looked up): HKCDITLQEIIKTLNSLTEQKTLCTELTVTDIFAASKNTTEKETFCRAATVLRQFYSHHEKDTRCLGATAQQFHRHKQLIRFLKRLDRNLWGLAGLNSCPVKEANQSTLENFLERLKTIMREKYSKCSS


Experiments:
human IL-13 [1] = biological target: T2, human IL-13 (human, UniProt P35225 35-146, biotinylated on the Biacore chip); experiment: Dom10 RBA (IL-13 sandwich ELISA per paragraph 471)
T2 construct: also called hIL-13; recombinant human IL-13
T2 sequence (P35225 35-146 limits assumed): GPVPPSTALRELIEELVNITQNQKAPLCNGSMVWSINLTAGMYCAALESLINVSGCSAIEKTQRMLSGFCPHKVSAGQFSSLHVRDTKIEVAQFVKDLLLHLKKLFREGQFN
Method: A MAXISORP™ plate (high protein binding ELISA plate, Nunc, Denmark) was coated overnight with 2.5 μg/ml coating antibody (Module Set, Bender MedSystems, Vienna, Austria), then washed once with 0.05% (v/v) Tween 20 in PBS before blocking with 0.5% (w/v) BSA 0.05% (v/v) Tween 20 in PBS. […] The plate was then incubated with TMB substrate (KPL, Gaithersburg, USA), and the reaction was stopped by the addition of HCl and the absorbance read at 450 nm.

human IL-4 [2] = biological target: T1, human IL-4; experiment: DOM9 RBA (IL-4 RBA)
Source text: (§1) The wells were washed three times with 0.1% (v/v) Tween 20 in PBS, followed by three washes with PBS, before blocking with 2% (w/v) BSA in PBS. […] The reaction was stopped by the addition of HCl and the absorbance read at 450 nm.

human IL-4 [3] = biological target: T1, human IL-4; experiment: IL-4 RBA: ELISA, IL-4R/Fc coated, biotinylated IL-4
Source text: as §1

human IL-13 [4] = biological target: T2, human IL-13; experiment: IL-13 Biacore

EC50 (human IL-13 [1]) [nM] | IC50 (human IL-4 [2]) [nM] | IC50 (human IL-4 [3]) | binding result (human IL-13 [4]) | Binder
4550 | 10.5 | – | – | DOM9-112-210-ASTKGPS-DOM10-273 (bispecific antibody, in-line fusion, from pDOM5) EVQLLESGGGLVQPGGSLRLSCAASGFTFRNFGMGWVRQAPGKGLEWVSWIISSGTETYYADSVKGRFTISRDNSKNTLYLQMNSLRAEDTAVYYCAKSLGRFDYWGQGTLVTVSSASTKGPSEVQLLESGGGLVQPGGSLRLSCAASGFTFELEEMDWVRQAPGKGLEWVSSISGSGGSTYYADSVKGRFTISRDNSKNTLYLQMNSLRAEDTAVYYCAKAYTGFDYWGQGTLVTVSS
4380 | 11.7 | – | – | DOM9-112-210-ASTKGPS-DOM10-277 (bispecific antibody, in-line fusion, from pDOM5) EVQLLESGGGLVQPGGSLRLSCAASGFTFRNFGMGWVRQAPGKGLEWVSWIISSGTETYYADSVKGRFTISRDNSKNTLYLQMNSLRAEDTAVYYCAKSLGRFDYWGQGTLVTVSSASTKGPSEVQLLESGGGLVQPGGSLRLSCAASGFTFSSYEMDWVRQAPGKGLEWVSTISADGVTTYYADSVKGRFTISRDNSKNTLYLQMNSLRAEDTAVYYCAKAFDAFDYWGQGTLVTVSS
34400 | 7.27 | – | – | DOM9-112-210-ASTKGPS-DOM10-416 (bispecific antibody, in-line fusion, from pDOM5) EVQLLESGGGLVQPGGSLRLSCAASGFTFRNFGMGWVRQAPGKGLEWVSWIISSGTETYYADSVKGRFTISRDNSKNTLYLQMNSLRAEDTAVYYCAKSLGRFDYWGQGTLVTVSSASTKGPSEVQLLESGGGLVQPGGSLRLSCAASGFTFKGSEMDWVRQAPGKGLEWVSTISADGRETYYADSVKGRFTISRDNSKNTLYLQMNSLRAEDTAVYYCAKSYTSFDYWGQGTLVTVSS
62 | 6.91 | – | – | DOM10-213-TVAAPS-DOM9-155-78 (bispecific antibody, in-line fusion, from pDOM5) DIQMTQSPSSLSASVGDRVTITCRASQAIPWGLNWYQQKPGKAPKLLIYDVSSLQSGVPSRFSGSGSGTDFTLTISSLQPEDFATYYCQQDIHIPMTFGQGTKVEIKRTVAAPSDIQMTQSPSSLSASVGDRVTITCRASRHIGDWLHWYQQKPGKAPKLLIAWASTLDSGVPSRFSGSGSGTDFTLTISSLQPEDFATYYCLQEGWGPPTFGQGTKVEIKR
10.8 | 6.65 | – | – | DOM10-215-TVAAPS-DOM9-155-78 (bispecific antibody, in-line fusion, from pDOM5) DIQMTQSPSSLSASVGDRVTITCRASQNIFADLNWYQQKPGKAPKLLIYMGSRLQSGVPSRFSGSGSGTDFTLTISSLQPEDFATYYCQQDYKFPLTFGQGTKVEIKRTVAAPSDIQMTQSPSSLSASVGDRVTITCRASRHIGDWLHWYQQKPGKAPKLLIAWASTLDSGVPSRFSGSGSGTDFTLTISSLQPEDFATYYCLQEGWGPPTFGQGTKVEIKR
372 | 2.54 | – | – | DOM10-236-ASTKGPS-DOM9-155-78 (bispecific antibody, in-line fusion, from pDOM5) EVQLLESGGGLVQPGGSLRLSCAASGFTFPKYDMMWVRQAPGKGLEWVSSIDHLGVNTYYADSVKGRFTISRDNSKNTLYLQMNSLRAEDTAVYYCAKESDWPSFDYWGQGTLVTVSSASTKGPSDIQMTQSPSSLSASVGDRVTITCRASRHIGDWLHWYQQKPGKAPKLLIAWASTLDSGVPSRFSGSGSGTDFTLTISSLQPEDFATYYCLQEGWGPPTFGQGTKVEIKR
4240 | 8.18 | – | – | DOM10-208-TVAAPS-DOM9-155-78 (bispecific antibody, in-line fusion, from pDOM5) DIQMTQSPSSLSASVGDRVTITCRASSPITDGLAWYQQKPGKAPKLLIDTGSRLQSGVPSRFSGSGSGTDFTLTISSLQPEDFATYYCRQGAMGSYTFGQGTKVEIKRTVAAPSDIQMTQSPSSLSASVGDRVTITCRASRHIGDWLHWYQQKPGKAPKLLIAWASTLDSGVPSRFSGSGSGTDFTLTISSLQPEDFATYYCLQEGWGPPTFGQGTKVEIKR
– | 3.6 | 3 nM | – | DOM9-112 (other, VH dAb) VH: EVQLLESGGGLVQPGGSLRLSCAASGFTFRNYGMAWVRQAPGKGLEWVSWIDASGTETYYADSVKGRFTISRDNSKNTLYLQMNSLRAEDTAVYYCAKSLGRFDYWGQGTLVTVSS
– | – | 1.22 nM and 0.64 nM | – | DOM9-112-168 (other, VH dAb) VH: EVQLLESGGGLVQPGGSLRLSCAASGFTFRNYGMAWVRQAPGKGLEWVSWIEGGGTETYYADSVKGRFTISRDNSKNTLYLQMNSLRAEDTAVYYCAKSLGRFDYWGQGTLVTVSS
37.2 | 8.6 | – | – | DOM10-270-TVAAPS-DOM9-155-78 (bispecific antibody, in-line fusion, from pDOM5) DIQMTQSPSSLSASVGDRVTITCRASSVILNELHWYQQKPGKAPKLLISAVSRLQSGVPSRFSGSGSGTDFTLTISSLQPEDFATYYCLQTFWGPYTFGQGTKVEIKRTVAAPSDIQMTQSPSSLSASVGDRVTITCRASRHIGDWLHWYQQKPGKAPKLLIAWASTLDSGVPSRFSGSGSGTDFTLTISSLQPEDFATYYCLQEGWGPPTFGQGTKVEIKR
185 | 2.25 | – | – | DOM10-273-ASTKGPS-DOM9-155-78 (bispecific antibody, in-line fusion, from pDOM5) EVQLLESGGGLVQPGGSLRLSCAASGFTFELEEMDWVRQAPGKGLEWVSSISGSGGSTYYADSVKGRFTISRDNSKNTLYLQMNSLRAEDTAVYYCAKAYTGFDYWGQGTLVTVSSASTKGPSDIQMTQSPSSLSASVGDRVTITCRASRHIGDWLHWYQQKPGKAPKLLIAWASTLDSGVPSRFSGSGSGTDFTLTISSLQPEDFATYYCLQEGWGPPTFGQGTKVEIKR
648 | 9.45 | – | – | DOM10-277-ASTKGPS-DOM9-155-78 (bispecific antibody, in-line fusion, from pDOM5) EVQLLESGGGLVQPGGSLRLSCAASGFTFSSYEMDWVRQAPGKGLEWVSTISADGVTTYYADSVKGRFTISRDNSKNTLYLQMNSLRAEDTAVYYCAKAFDAFDYWGQGTLVTVSSASTKGPSDIQMTQSPSSLSASVGDRVTITCRASRHIGDWLHWYQQKPGKAPKLLIAWASTLDSGVPSRFSGSGSGTDFTLTISSLQPEDFATYYCLQEGWGPPTFGQGTKVEIKR
444 | 5.88 | – | – | DOM10-416-ASTKGPS-DOM9-155-78 (bispecific antibody, in-line fusion, from pDOM5) EVQLLESGGGLVQPGGSLRLSCAASGFTFKGSEMDWVRQAPGKGLEWVSTISADGRETYYADSVKGRFTISRDNSKNTLYLQMNSLRAEDTAVYYCAKSYTSFDYWGQGTLVTVSSASTKGPSDIQMTQSPSSLSASVGDRVTITCRASRHIGDWLHWYQQKPGKAPKLLIAWASTLDSGVPSRFSGSGSGTDFTLTISSLQPEDFATYYCLQEGWGPPTFGQGTKVEIKR
– | – | – | binds | DOM9-112-210-ASTKGPS-DOM10-236 (bispecific antibody, in-line fusion, from pDOM5) EVQLLESGGGLVQPGGSLRLSCAASGFTFRNFGMGWVRQAPGKGLEWVSWIISSGTETYYADSVKGRFTISRDNSKNTLYLQMNSLRAEDTAVYYCAKSLGRFDYWGQGTLVTVSSASTKGPSEVQLLESGGGLVQPGGSLRLSCAASGFTFPKYDMMWVRQAPGKGLEWVSSIDHLGVNTYYADSVKGRFTISRDNSKNTLYLQMNSLRAEDTAVYYCAKESDWPSFDYWGQGTLVTVSS
1000 | 3.21 | – | – | DOM9-112-210-ASTKGPS-DOM10-212 (bispecific antibody, in-line fusion, from pDOM5) EVQLLESGGGLVQPGGSLRLSCAASGFTFRNFGMGWVRQAPGKGLEWVSWIISSGTETYYADSVKGRFTISRDNSKNTLYLQMNSLRAEDTAVYYCAKSLGRFDYWGQGTLVTVSSASTKGPSDIQMTQSPSSLSASVGDRVTITCRASSVILNELHWYQQKPGKAPKLLISAVSRLQSGVPSRFSGSGSGTDFTLTISSLQPEDFATYYCLQTFWGPFTFGQGTKVEIKR
398 | 2.79 | – | – | DOM9-112-210-DOM10-270 (bispecific antibody, in-line fusion, from pDOM5) EVQLLESGGGLVQPGGSLRLSCAASGFTFRNFGMGWVRQAPGKGLEWVSWIISSGTETYYADSVKGRFTISRDNSKNTLYLQMNSLRAEDTAVYYCAKSLGRFDYWGQGTLVTVSSASTKGPSDIQMTQSPSSLSASVGDRVTITCRASSVILNELHWYQQKPGKAPKLLISAVSRLQSGVPSRFSGSGSGTDFTLTISSLQPEDFATYYCLQTFWGPYTFGQGTKVEIKR
4580 | 2.75 | – | – | DOM9-112-210-ASTKGPS-DOM10-224 (bispecific antibody, in-line fusion, from pDOM5) EVQLLESGGGLVQPGGSLRLSCAASGFTFRNFGMGWVRQAPGKGLEWVSWIISSGTETYYADSVKGRFTISRDNSKNTLYLQMNSLRAEDTAVYYCAKSLGRFDYWGQGTLVTVSSASTKGPSDIQMTQSPSSLSASVGDRVTITCRASPNIAVDLAWYQQKPGKAPKLLIRGVSRLQSGVPSRFSGSGSGTDFTLTISSLQPEDFATYYCRQGAMGSYTFGQGTKVEIKR
1150 | 4.29 | – | – | DOM9-112-210-ASTKGPS-DOM10-213 (bispecific antibody, in-line fusion, from pDOM5) EVQLLESGGGLVQPGGSLRLSCAASGFTFRNFGMGWVRQAPGKGLEWVSWIISSGTETYYADSVKGRFTISRDNSKNTLYLQMNSLRAEDTAVYYCAKSLGRFDYWGQGTLVTVSSASTKGPSDIQMTQSPSSLSASVGDRVTITCRASQAIPWGLNWYQQKPGKAPKLLIYDVSSLQSGVPSRFSGSGSGTDFTLTISSLQPEDFATYYCQQDIHIPMTFGQGTKVEIKR
– | – | 100 nM | – | DOM9-155 (other, Vk dAb) VL: DIQMTQSPSSLSASVGDRVTITCRASLDIGDWLHWYQQKPGKAPKLLIGWGSGLQSGVPSRFSGSGSGTDFTLTISSLQPEDFATYYCLQEGLGPPTFGQGTKVEIKR
– | – | 122 nM | – | DOM9-44 (other, Vk dAb) VL: DIQMTQSPSSLSASVGDRVTITCRASQNINFWLRWYQQKPGKAPTLLIYDASALQSGVPSRFSGSGSGTDFTLTISSLQPEDFATYYCQQDFNPPYTFGQGTKVEIKR

From patent US20090060916A1 (published 2009)
